# According to patent US20200024330A1:
# Experiments:
# Assay in all cases: cell-based or functional assay
# [1] = target: HIV-1 97ZA012 envelope glycoprotein (Env) on pseudovirus (HIV-1)
# [2] = target: HIV-1 Env of isolate MGRM-A-010 (HIV-1)
# [3] = target: HIV-1 Env of isolate MGRM-A-011 (HIV-1)
# [4] = target: HIV-1 Env of isolate MGRM-A-012 (HIV-1)
# [5] = target: HIV-1 Env of isolate MGRM-AE-003 (HIV-1)
# [6] = target: HIV-1 Env of isolate MGRM-D-028 (clade D) (HIV-1)
# [7] = target: HIV-1 Env of isolate MGRM-F1-010 (HIV-1)
# [8] = target: HIV-1 Env of isolate MGRM-F1-012 (HIV-1)
# [9] = target: HIV-1 Env of isolate MGRM-G-027 (subtype G) (HIV-1)
# [10] = target: HIV-1 JRCSF envelope glycoprotein (Env) on pseudovirus (HIV-1) (UniProt P20871)
# [11] = target: HIV-1 MGRM-C-028 envelope glycoprotein (Env) (HIV-1)
# [12] = target: HIV-1 MGRM-F1-012 Env (pseudovirus) (HIV-1)
# [13] = target: HIV-1 NL43 envelope protein (Env) on pseudotyped virus (HIV-1 NL43)
# [14] = target: HIV-1 Env of isolate MGRM-A-006 (HIV-1)
# [15] = target: HIV-1 93IN905 Env (on pseudovirus) (HIV-1)
# [16] = target: HIV-1 93UG077 Env (on pseudovirus) (HIV-1)
# [17] = target: HIV-1 APV17 Env (on pseudovirus) (HIV-1)
# [18] = target: HIV-1 JRCSF Env (on pseudovirus) (HIV-1) (UniProt P20871)
# [19] = target: HIV-1 JRFL Env (on pseudovirus) (HIV-1)
# [20] = target: HIV-1 MGRM-A-010 Env (on pseudovirus) (HIV-1)
# [21] = target: HIV-1 MGRM-C-026 Env (on pseudovirus) (HIV-1)
# [22] = target: HIV-1 MGRM-C-028 Env (on pseudovirus) (HIV-1)
# [23] = target: HIV-1 envelope glycoprotein (Env) of isolate MGRM-C-017, on pseudovirus (HIV-1)
# [24] = target: HIV-1 envelope glycoprotein (Env) of isolate MGRM-C-023, on pseudovirus (HIV-1)
# Sequence of PGT-142 (4995_E20) (antibody) (VH): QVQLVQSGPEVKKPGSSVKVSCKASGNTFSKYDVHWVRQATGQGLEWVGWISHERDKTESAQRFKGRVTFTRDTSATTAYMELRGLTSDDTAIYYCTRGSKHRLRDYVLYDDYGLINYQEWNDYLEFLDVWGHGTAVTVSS
# Sequence of PGT-142 (4995_E20) (antibody) (VL): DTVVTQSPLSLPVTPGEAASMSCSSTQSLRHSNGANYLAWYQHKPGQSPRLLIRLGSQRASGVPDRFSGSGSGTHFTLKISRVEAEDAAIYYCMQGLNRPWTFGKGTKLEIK
# Sequence of PGT-144 (4970_K22) (antibody) (VH): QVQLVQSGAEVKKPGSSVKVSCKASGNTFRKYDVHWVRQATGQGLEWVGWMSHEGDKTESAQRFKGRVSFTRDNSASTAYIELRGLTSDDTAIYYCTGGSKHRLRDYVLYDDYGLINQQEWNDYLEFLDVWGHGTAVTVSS
# Sequence of PGT-144 (4970_K22) (antibody) (VL): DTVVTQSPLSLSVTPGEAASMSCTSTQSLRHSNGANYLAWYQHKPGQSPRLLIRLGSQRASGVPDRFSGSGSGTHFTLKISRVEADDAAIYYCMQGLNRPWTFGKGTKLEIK
# Sequence of PGT-143 (4980_N08) (antibody) (VH): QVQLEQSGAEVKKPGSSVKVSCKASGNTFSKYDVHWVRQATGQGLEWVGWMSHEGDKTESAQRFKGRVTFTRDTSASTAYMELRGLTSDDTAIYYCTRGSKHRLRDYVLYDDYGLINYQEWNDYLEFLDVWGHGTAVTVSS
# Sequence of PGT-143 (4980_N08) (antibody) (VL): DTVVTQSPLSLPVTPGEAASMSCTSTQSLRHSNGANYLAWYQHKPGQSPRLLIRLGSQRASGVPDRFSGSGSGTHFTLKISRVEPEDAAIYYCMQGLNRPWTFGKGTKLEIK
# Sequence of PGT-141 (4964_G22; 4993_K13) (antibody) (VH): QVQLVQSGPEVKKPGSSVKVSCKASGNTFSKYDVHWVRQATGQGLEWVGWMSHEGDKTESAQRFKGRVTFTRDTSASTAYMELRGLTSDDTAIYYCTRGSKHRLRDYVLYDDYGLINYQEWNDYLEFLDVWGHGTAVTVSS
Substance,"IC50 (µg/mL), pseudovirus neutralization [2] [µg/mL]","IC50 (µg/mL), pseudovirus neutralization [3] [µg/mL]","IC50 (µg/mL), pseudovirus neutralization [4] [µg/mL]","IC50 (µg/mL), pseudovirus neutralization [5] [µg/mL]",neutralization IC50 [9] [µg/mL],IC50 neutralization [11] [µg/mL],"IC50 (ug/ml), pseudovirus neutralization [15] [µg/mL]","IC50 (ug/ml), pseudovirus neutralization [16] [µg/mL]","IC50 (ug/ml), pseudovirus neutralization [17] [µg/mL]","IC50 (ug/ml), pseudovirus neutralization [18] [µg/mL]","IC50 (ug/ml), pseudovirus neutralization [19] [µg/mL]","IC50 (ug/ml), pseudovirus neutralization [20] [µg/mL]","IC50 (ug/ml), pseudovirus neutralization [21] [µg/mL]","IC50 (ug/ml), pseudovirus neutralization [22] [µg/mL]","IC50, pseudovirus neutralization [23] [µg/mL]","IC50, pseudovirus neutralization [24] [µg/mL]",further results
1496_C09 (PG9) (TCN-109) (antibody),0.022,0.033,19.3,0.044,0.007,0.121,,,,,,,,,,,"IC50 (µg/ml), pseudovirus neutralization [1]: 1.27 µg/mL; IC50 (µg/ml), pseudovirus neutralization [6]: 4.39 µg/mL; IC50 (µg/mL), pseudovirus neutralization [7]: 0.012 µg/mL; IC50 (µg/mL), pseudovirus neutralization [8]: 0.023 µg/mL; IC50 (ug/ml), neutralizing activity [10]: 0.0048 µg/mL; IC50 neutralization [10]: 0.0048 µg/mL; IC80, neutralization [10]: 0.0181 µg/mL; IC90, neutralization [10]: 0.0391 µg/mL; IC95, neutralization [10]: 0.0798 µg/mL; IC50 (µg/ml), pseudovirus neutralization [12]: 0.01 µg/mL; IC50, pseudovirus neutralization, 1 hour Virus/Ab Incubation [13]: 0.294 µg/mL; IC50, pseudovirus neutralization, 18 hour Virus/Ab Incubation [13]: 38 µg/mL"
PGT-121 (antibody),2.44,> 50,0.092,> 50,,1.19,,,,,,,,,,,"IC50 (µg/mL), pseudovirus neutralization [14]: 0.396 µg/mL"
PGT-122 (antibody),2.51,> 50,0.257,> 50,,2.06,,,,,,,,,,,"IC50 (µg/mL), pseudovirus neutralization [14]: > 50 µg/mL"
PGT-141 (4964_G22; 4993_K13) (antibody),,,,,> 50,,0.0016,> 10,0.616,0.0047,> 10,0.0563,> 10,2.35,4.02,0.153,
PGT-142 (4995_E20) (antibody),,,,,> 50,,0.0017,> 10,0.393,0.0085,> 10,0.0578,> 10,1.23,1.11,0.087,
PGT-143 (4980_N08) (antibody),,,,,> 50,,0.0021,> 10,0.618,0.0064,> 10,0.0657,> 10,1.82,5.17,0.148,
PGT-144 (4970_K22) (antibody),,,,,> 50,,0.158,> 10,5.12,0.128,> 10,4.02,> 10,> 10,23,0.38,
PGV04 (antibody),0.205,0.09,0.225,6.4,0.125,,,,,,,,,,,,"IC50 [14]: 0.244 µg/mL; IC50 (µg/mL), pseudovirus neutralization [7]: 0.184 µg/mL; IC50 (µg/mL), pseudovirus neutralization [8]: 0.25 µg/mL"
